Source: patent publication US20240076371A1, “COMPOSITIONS AND METHODS FOR TREATING OSTEOARTHRITIS, RHEUMATOID ARTHRITIS, AND JOINT AND TENDON DISORDERS” (BOARD OF REGENTS, THE UNIVERSITY OF TEXAS SYSTEM, priority 2021, published 2024)

Test system: post-traumatic OA model (DMM) in male C57BL/6 mice
Assay: DMM OA model: Von Frey filament test (paw withdrawal threshold)
Assay type: in vivo, mouse
Method: Destabilization of the medial meniscus (DMM) surgery was performed on the right knee joint of mice (Glasson S S, et al. Osteoarthritis and cartilage. 2007; 15(9):1061-9). Briefly, a 3 mm longitudinal incision over the distal patella to proximal tibial plateau was made. The joint capsule immediately medial to the patellar tendon was incised with a #15 blade and the joint capsule opened with micro-iris scissors. Blunt dissection of the fat pad over the intercondylar area was then performed to expose the intercondylar region, providing visualization of the meniscotibial ligament of the medial meniscus. Mild hemorrhage from the fat pad upon blunt dissection was controlled by pressure from absorption spears. Sectioning of medial meniscotibial ligament with micro-surgical knife, with the blade directed proximo-laterally, gave destabilization of the medial meniscus (DMM). Sham surgery was performed with the ligament visualized but not transected.
Animal behavioral tests. The paw withdraw threshold was measured using von Frey filaments 0.007 to 2. Mice were placed in acrylic chambers (5.5×10 cm) suspended above a wire mesh grid and allowed to acclimatize to the testing apparatus for 30 minutes prior to experiments. When the mouse was not moving the von Frey filaments were pressed against the plantar surface of the paw until the filament buckled and held for a maximum of 3 seconds. A positive response was noted if the paw was sharply withdrawn on application of the filament. Flinching immediately upon removal of the filament was also considered a positive response (Chaplan S R, et al. Journal of neuroscience methods. 1994; 53(1):55-63; and Bonin R P, et al. Molecular pain. 2014; 10:26). Testing began with filament number 0.4 and progressed according to an up-down method.

B1: M1 antibody: antibody with variable heavy chain SEQ ID NO: 58 and variable light chain SEQ ID NO: 60; inhibits or blocks opening of Cx43 hemichannel (antibody, V domains shown)
VH: EVQLQQPGAELVKPGASVKLSCKASGYTFTSYYMYWVKQRPGQGLEWIGGINPSNGGTNFNEKFKNKATLTVDKSSSTAYMQLSSLTSEDSAVYYCTREGNPYYTMNYWGQGTSVTVSS
VL: DIVMTQSPSSLSVSAGEKVTMSCKSSQSLLNSGNQKTYLAWYQQKPGQPPKLLIYGASTRESGVPDRFTGSGSGTDFTLTISSVQAEDLAVYYCQNDHSYPFTFGSGTKLEIK
4 weeks after DMM, vs saline
  response threshold to mechanical stimuli (von Frey): slight trend of increased response threshold
8 weeks after DMM, i.p. twice
  paw withdrawal threshold relative to saline treated DMM mice: 121.4%
Sham mice at 8 weeks
  paw withdraw threshold in sham mice, saline vs antibody: No difference
Single i.p. injection, eight weeks after DMM, vs saline
  paw withdraw threshold to mechanical stimuli (von Frey): slight trend of increased paw withdraw threshold
